Laboratory results from the supplement of paper PMC5998384.

What was measured:
HeLa Kyoto [1] = test: melting temperature (median over replicates), in situ; higher = more thermally stable
HeLa Kyoto [2] = test: solubility change mitosis vs G1/S (difference of NP-40 vs SDS log2 ratios) (log2 ratio difference); higher = more soluble in mitosis
HeLa Kyoto [3] = test: thermal stability score vs G1/S (z-score of summed log2 fold changes over temperatures); higher = more thermally stable than in G1/S
HeLa Kyoto [4] = test: solubility in G1/S (NP-40 vs SDS abundance) (log2 ratio); higher = more soluble; conditions: cell cycle stage: G1/S
[5] = cell cycle stage: early G1 (4.5 h after nocodazole release)
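Wherever melting temperature (median over replicates), in situ is given: HeLa Kyoto cells synchronized by double thymidine or nocodazole block, proteins quantified by TMT10plex mass spectrometry, three independent biological replicates.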
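Wherever solubility change mitosis vs G1/S (difference of NP-40 vs SDS log2 ratios) is given: synchronized HeLa Kyoto cells (double thymidine block for G1/S, nocodazole release for mitosis), protein amounts in NP-40 versus SDS lysates quantified by mass spectrometry, three biological replicates.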
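Wherever solubility in G1/S (NP-40 vs SDS abundance) is given: HeLa Kyoto cells arrested at G1/S by double thymidine block, proteins quantified by TMT10plex mass spectrometry in mild NP-40 versus SDS extracts, three biological replicates.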
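Wherever thermal stability score vs G1/S (z-score of summed log2 fold changes over temperatures) is given: synchronized HeLa Kyoto cells, proteins quantified by TMT10plex mass spectrometry, three biological replicates, mitosis taken 0.5 h after nocodazole release, G1/S directly after double thymidine block.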

Substance	melting temperature (HeLa Kyoto [1]; cell cycle stage: G1/S)	melting temperature (HeLa Kyoto [1]; cell cycle stage: mitosis)	solubility change mitosis (log2) (HeLa Kyoto [2])	thermal stability score (HeLa Kyoto [3]; [5])	thermal stability score (HeLa Kyoto [3]; cell cycle stage: mitosis)	solubility in G1/S (log2) (HeLa Kyoto [4])
MHKHQHCCKCPECYEVTRLAALRRLEPPGYGDWQVPDPYGPGGGNGASAGYGGYSSQTLPSQAGATPTPRTKAKLIPTGRDVGPVPPKPVPGKSTPKLNGSGPSWWPECTCTNRDWYEQVNGSDGMFKYEEIVLERGNSGLGFSIAGGIDNPHVPDDPGIFITKIIPGGAAAMDGRLGVNDCVLRVNEVDVSEVVHSRAVEALKEAGPVVRLVVRRRQPPPETIMEVNLLKGPKGLGFSIAGGIGNQHIPGDNSIYITKIIEGGAAQKDGRLQIGDRLLAVNNTNLQDVRHEEAVASLKNTSDMVYLKVAKPGSLHLNDMYAPPDYASTFTALADNHISHNSSLGYLGAVESKVSYPAPPQVPPTRYSPIPRHMLAEEDFTREPRKIILHKGSTGLGFNIVGGEDGEGIFVSFILAGGPADLSGELRRGDRILSVNGVNLRNATHEQAAAALKRAGQSVTIVAQYRPEEYSRFESKIHDLREQMMNSSMSSGSGSLRTSEKRSLYVRALFDYDRTRDSCLPSQGLSFSYGDILHVINASDDEWWQARLVTPHGESEQIGVIPSKKRVEKKERARLKTVKFHARTGMIESNRDFPGLSDDYYGAKNLKGQEDAILSYEPVTRQEIHYARPVIILGPMKDRVNDDLISEFPHKFGSCVPHTTRPRRDNEVDGQDYHFVVSREQMEKDIQDNKFIEAGQFNDNLYGTSIQSVRAVAERGKHCILDVSGNAIKRLQQAQLYPIAIFIKPKSIEALMEMNRRQTYEQANKIYDKAMKLEQEFGEYFTAIVQGDSLEEIYNKIKQIIEDQSGHYIWVPSPEKL [DLG3]	52.9 °C	53.1 °C	-0.139	-0.454	-1.05	0.141
MHPPETTTKMASVRFMVTPTKIDDIPGLSDTSPDLSSRSSSRVRFSSRESVPETSRSEPMSEMSGATTSLATVALDPPSDRTSHPQDVIEDLSQNSITGEHSQLLDDGHKKARNAYLNNSNYEEGDEYFDKNLALFEEEMDTRPKVSSLLNRMANYTNLTQGAKEHEEAENITEGKKKPTKTPQMGTFMGVYLPCLQNIFGVILFLRLTWVVGTAGVLQAFAIVLICCCCTMLTAISMSAIATNGVVPAGGSYFMISRALGPEFGGAVGLCFYLGTTFAAAMYILGAIEIFLVYIVPRAAIFHSDDALKESAAMLNNMRVYGTAFLVLMVLVVFIGVRYVNKFASLFLACVIVSILAIYAGAIKSSFAPPHFPVCMLGNRTLSSRHIDVCSKTKEINNMTVPSKLWGFFCNSSQFFNATCDEYFVHNNVTSIQGIPGLASGIITENLWSNYLPKGEIIEKPSAKSSDVLGSLNHEYVLVDITTSFTLLVGIFFPSVTGIMAGSNRSGDLKDAQKSIPIGTILAILTTSFVYLSNVVLFGACIEGVVLRDKFGDAVKGNLVVGTLSWPSPWVIVIGSFFSTCGAGLQSLTGAPRLLQAIAKDNIIPFLRVFGHSKANGEPTWALLLTAAIAELGILIASLDLVAPILSMFFLMCYLFVNLACALQTLLRTPNWRPRFRYYHWALSFMGMSICLALMFISSWYYAIVAMVIAGMIYKYIEYQGAEKEWGDGIRGLSLSAARFALLRLEEGPPHTKNWRPQLLVLLKLDEDLHVKHPRLLTFASQLKAGKGLTIVGSVIVGNFLENYGEALAAEQTIKHLMEAEKVKGFCQLVVAAKLREGISHLIQSCGLGGMKHNTVVMGWPNGWRQSEDARAWKTFIGTVRVTTAAHLALLVAKNISFFPSNVEQFSEGNIDVWWIVHDGGMLMLLPFLLKQHKVWRKCSIRIFTVAQLEDNSIQMKKDLATFLYHLRIEAEVEVVEMHDSDISAYTYERTLMMEQRSQMLRHMRLSKTERDREAQLVKDRNSMLRLTSIGSDEDEETETYQEKVHMTWTKDKYMASRGQKAKSMEGFQDLLNMRPDQSNVRRMHTAVKLNEVIVNKSHEAKLVLLNMPGPPRNPEGDENYMEFLEVLTEGLERVLLVRGGGSEVITIYS [SLC12A6]	54.8 °C	54.4 °C	0.00121	-0.231	-0.0357	-0.0182
MHPPKTPSGALHRKRKMAAWPFSRLWKVSDPILFQMTLIAALLPAVLGNCGPPPTLSFAAPMDITLTETRFKTGTTLKYTCLPGYVRSHSTQTLTCNSDGEWVYNTFCIYKRCRHPGELRNGQVEIKTDLSFGSQIEFSCSEGFFLIGSTTSRCEVQDRGVGWSHPLPQCEIVKCKPPPDIRNGRHSGEENFYAYGFSVTYSCDPRFSLLGHASISCTVENETIGVWRPSPPTCEKITCRKPDVSHGEMVSGFGPIYNYKDTIVFKCQKGFVLRGSSVIHCDADSKWNPSPPACEPNSCINLPDIPHASWETYPRPTKEDVYVVGTVLRYRCHPGYKPTTDEPTTVICQKNLRWTPYQGCEALCCPEPKLNNGEITQHRKSRPANHCVYFYGDEISFSCHETSRFSAICQGDGTWSPRTPSCGDICNFPPKIAHGHYKQSSSYSFFKEEIIYECDKGYILVGQAKLSCSYSHWSAPAPQCKALCRKPELVNGRLSVDKDQYVEPENVTIQCDSGYGVVGPQSITCSGNRTWYPEVPKCEWETPEGCEQVLTGKRLMQCLPNPEDVKMALEVYKLSLEIEQLELQRDSARQSTLDKEL [C4BPA]	54.4 °C	56.1 °C	-0.146	5.62	9.17	-0.459
MHSRGREIVVLLNPWSINEAVSSYCTYFIKQDSKSFGIMVSWKGIYFILTLFWGSFFGSIFMLSPFLPLMFVNPSWYRWINNRLVATWLTLPVALLETMFGVKVIITGDAFVPGERSVIIMNHRTRMDWMFLWNCLMRYSYLRLEKICLKASLKGVPGFGWAMQAAAYIFIHRKWKDDKSHFEDMIDYFCDIHEPLQLLIFPEGTDLTENSKSRSNAFAEKNGLQKYEYVLHPRTTGFTFVVDRLREGKNLDAVHDITVAYPHNIPQSEKHLLQGDFPREIHFHVHRYPIDTLPTSKEDLQLWCHKRWEEKEERLRSFYQGEKNFYFTGQSVIPPCKSELRVLVVKLLSILYWTLFSPAMCLLIYLYSLVKWYFIITIVIFVLQERIFGGLEIIELACYRLLHKQPHLNSKKNE [LCLAT1]	55.1 °C	54.7 °C	-0.165	-2.01	-2.82	-0.201
MIA3	51.4 °C	52.2 °C	-0.082	3.98	7.12	0.245
